The record followed here is patent publication US20020147168.

Common to all, as to assay: cell_activity
For data set [1], the system named is Cre recombinase S2A (Bacteriophage P1). As to conditions: pBS210 excision in Nicotiana plumbaginifolia protoplasts, 72 h; pBS210 alone 0.
The test system of data set [2] is nlsCre recombinase from intron-containing gene (inlscre) S2A (Bacteriophage P1). Particulars: pBS210 excision in Nicotiana plumbaginifolia protoplasts, 72 h; also in planta excision in tobacco from pBS229.
For data set [3], the system named is nlsCre recombinase S2A (Bacteriophage P1). As to conditions: pBS210 excision in Nicotiana plumbaginifolia protoplasts, 72 h; pBS210 alone 0.

With “loxP sites in direct repeat (pBS210, pBS229)”, the results for the activity (GUS units/25 ug protein) in data set [1], in data set [2] and in data set [3] were 133, 51 and 141, respectively.
